* marks the point of attachment. C27H50N3O2SC(O)‑ = not defined here; Palmitoyl = CCCCCCCCCCCCCCCC(=O)*
What was measured:
CXCR4 receptor [1] = molecular target: T1, CXCR4 receptor (human, UniProt P61073 1-352); experiment: cell-based or functional assay
CXCR4 receptor [2] = molecular target: T1, CXCR4 receptor; experiment: cell-based or functional assay; remark: listed apart in the source

T1 sequence (P61073 whole entry): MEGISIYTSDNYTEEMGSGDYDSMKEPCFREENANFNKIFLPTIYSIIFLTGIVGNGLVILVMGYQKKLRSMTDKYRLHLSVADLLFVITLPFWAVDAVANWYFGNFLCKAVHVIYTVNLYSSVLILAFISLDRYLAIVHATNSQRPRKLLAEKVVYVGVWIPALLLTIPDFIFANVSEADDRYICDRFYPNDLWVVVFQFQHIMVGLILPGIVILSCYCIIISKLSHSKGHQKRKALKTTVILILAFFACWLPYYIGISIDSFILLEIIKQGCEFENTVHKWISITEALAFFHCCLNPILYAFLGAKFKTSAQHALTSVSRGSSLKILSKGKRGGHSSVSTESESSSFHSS

{C27H50N3O2SC(O)‑}-HSKGHQKRKQALK-NH2 (reading uncertain) [CXCR4 i3 loop compound 87]
AUC (% of vehicle), chemotaxis, CEM, 1.0 uM (CXCR4 receptor [1]): 52.6 % of vehicle
Max (% of vehicle), chemotaxis, CEM, 1.0 uM (CXCR4 receptor [1]): 76.1 % of vehicle
Peak Ratio, chemotaxis, CEM, 1.0 uM (CXCR4 receptor [1]): 0.2

B1: CXCR4 i1 loop compound 39 (peptide)
peptide: Palmitoyl-MGYQKKLRSMTDKYRLHL-NH2
SMILES: CCCCCCCCCCCCCCCC(=O)N[C@@H](CCSC)C(=O)NCC(=O)N[C@@H](Cc1ccc(O)cc1)C(=O)N[C@@H](CCC(N)=O)C(=O)N[C@@H](CCCCN)C(=O)N[C@@H](CCCCN)C(=O)N[C@@H](CC(C)C)C(=O)N[C@@H](CCCNC(=N)N)C(=O)N[C@@H](CO)C(=O)N[C@@H](CCSC)C(=O)N[C@H](C(=O)N[C@@H](CC(=O)O)C(=O)N[C@@H](CCCCN)C(=O)N[C@@H](Cc1ccc(O)cc1)C(=O)N[C@@H](CCCNC(=N)N)C(=O)N[C@@H](CC(C)C)C(=O)N[C@@H](Cc1c[nH]cn1)C(=O)N[C@@H](CC(C)C)C(N)=O)[C@@H](C)O
AUC (% of), CHTX, CEM, 1.0 uM (CXCR4 receptor [2]): 37.5%
AUC (% of), CHTX, SUP B-15, 1.0 uM (CXCR4 receptor [2]): 47.4%
Max (% of), CHTX, CEM, 1.0 uM (CXCR4 receptor [2]): 59.7%
Max (% of), CHTX, SUP B-15, 1.0 uM (CXCR4 receptor [2]): 37.6%
Peak Ratio, CHTX, CEM, 1.0 uM (CXCR4 receptor [2]): 0.04
Peak Ratio, CHTX, SUP B-15, 1.0 uM (CXCR4 receptor [2]): 0.2

B2: CXCR4 i3 loop compound 95 (peptide)
peptide: Palmitoyl-LSHSKGHQKRKALK-NH2
SMILES: CCCCCCCCCCCCCCCC(=O)N[C@@H](CC(C)C)C(=O)N[C@@H](CO)C(=O)N[C@@H](Cc1c[nH]cn1)C(=O)N[C@@H](CO)C(=O)N[C@@H](CCCCN)C(=O)NCC(=O)N[C@@H](Cc1c[nH]cn1)C(=O)N[C@@H](CCC(N)=O)C(=O)N[C@@H](CCCCN)C(=O)N[C@@H](CCCNC(=N)N)C(=O)N[C@@H](CCCCN)C(=O)N[C@@H](C)C(=O)N[C@@H](CC(C)C)C(=O)N[C@@H](CCCCN)C(N)=O
AUC (% of vehicle), chemotaxis, CEM, 1.0 uM (CXCR4 receptor [1]): 77.5 % of vehicle
Max (% of vehicle), chemotaxis, CEM, 1.0 uM (CXCR4 receptor [1]): 92.1 % of vehicle
Peak Ratio, chemotaxis, CEM, 1.0 uM (CXCR4 receptor [1]): 1

B3: CXCR4 i3 loop compound 89 (peptide)
peptide: Palmitoyl-KLSHSKGHQKRKALKTTVIL-NH2
SMILES: CCCCCCCCCCCCCCCC(=O)N[C@@H](CCCCN)C(=O)N[C@@H](CC(C)C)C(=O)N[C@@H](CO)C(=O)N[C@@H](Cc1c[nH]cn1)C(=O)N[C@@H](CO)C(=O)N[C@@H](CCCCN)C(=O)NCC(=O)N[C@@H](Cc1c[nH]cn1)C(=O)N[C@@H](CCC(N)=O)C(=O)N[C@@H](CCCCN)C(=O)N[C@@H](CCCNC(=N)N)C(=O)N[C@@H](CCCCN)C(=O)N[C@@H](C)C(=O)N[C@@H](CC(C)C)C(=O)N[C@@H](CCCCN)C(=O)N[C@H](C(=O)N[C@H](C(=O)N[C@H](C(=O)N[C@H](C(=O)N[C@@H](CC(C)C)C(N)=O)[C@@H](C)CC)C(C)C)[C@@H](C)O)[C@@H](C)O
AUC (% of vehicle), chemotaxis, CEM, 1.0 uM (CXCR4 receptor [1]): 37.5 % of vehicle
Max (% of vehicle), chemotaxis, CEM, 1.0 uM (CXCR4 receptor [1]): 59.7 % of vehicle
Peak Ratio, chemotaxis, CEM, 1.0 uM (CXCR4 receptor [1]): 0.04

B4: Compound No. 88 (Pal-SKLSHSKGHQKRKALKTTVIL-amide) (peptide)
peptide: Palmitoyl-SKLSHSKGHQKRKALKTTVIL-NH2
SMILES: CCCCCCCCCCCCCCCC(=O)N[C@@H](CO)C(=O)N[C@@H](CCCCN)C(=O)N[C@@H](CC(C)C)C(=O)N[C@@H](CO)C(=O)N[C@@H](Cc1c[nH]cn1)C(=O)N[C@@H](CO)C(=O)N[C@@H](CCCCN)C(=O)NCC(=O)N[C@@H](Cc1c[nH]cn1)C(=O)N[C@@H](CCC(N)=O)C(=O)N[C@@H](CCCCN)C(=O)N[C@@H](CCCNC(=N)N)C(=O)N[C@@H](CCCCN)C(=O)N[C@@H](C)C(=O)N[C@@H](CC(C)C)C(=O)N[C@@H](CCCCN)C(=O)N[C@H](C(=O)N[C@H](C(=O)N[C@H](C(=O)N[C@H](C(=O)N[C@@H](CC(C)C)C(N)=O)[C@@H](C)CC)C(C)C)[C@@H](C)O)[C@@H](C)O
AUC (% of vehicle), chemotaxis, CEM, 1.0 uM (CXCR4 receptor [1]): 144 % of vehicle
Max (% of vehicle), chemotaxis, CEM, 1.0 uM (CXCR4 receptor [1]): 132 % of vehicle
Peak Ratio, chemotaxis, CEM, 0.01 uM (CXCR4 receptor [1]): 0.04
Peak Ratio, chemotaxis, CEM, 0.03 uM (CXCR4 receptor [1]): 0.04
Peak Ratio, chemotaxis, CEM, 0.1 uM (CXCR4 receptor [1]): 0.04
Peak Ratio, chemotaxis, CEM, 0.3 uM (CXCR4 receptor [1]): 0.2
Peak Ratio, chemotaxis, CEM, 1.0 uM (CXCR4 receptor [1]): 1
Peak Ratio, chemotaxis, CEM, 3.0 uM (CXCR4 receptor [1]): 1

B5: CXCR4 i1 loop compound 40 (peptide)
peptide: Palmitoyl-YQKKLRSMTDKYRLHLSV-NH2
SMILES: CCCCCCCCCCCCCCCC(=O)N[C@@H](Cc1ccc(O)cc1)C(=O)N[C@@H](CCC(N)=O)C(=O)N[C@@H](CCCCN)C(=O)N[C@@H](CCCCN)C(=O)N[C@@H](CC(C)C)C(=O)N[C@@H](CCCNC(=N)N)C(=O)N[C@@H](CO)C(=O)N[C@@H](CCSC)C(=O)N[C@H](C(=O)N[C@@H](CC(=O)O)C(=O)N[C@@H](CCCCN)C(=O)N[C@@H](Cc1ccc(O)cc1)C(=O)N[C@@H](CCCNC(=N)N)C(=O)N[C@@H](CC(C)C)C(=O)N[C@@H](Cc1c[nH]cn1)C(=O)N[C@@H](CC(C)C)C(=O)N[C@@H](CO)C(=O)N[C@H](C(N)=O)C(C)C)[C@@H](C)O
AUC (% of), CHTX, SUP B-15, 1.0 uM (CXCR4 receptor [2]): 71.9%
Max (% of), CHTX, SUP B-15, 1.0 uM (CXCR4 receptor [2]): 71.2%
Peak Ratio, CHTX, SUP B-15, 1.0 uM (CXCR4 receptor [2]): 0.2

B6: Compound No. 90 (Pal-KLSHSKGHQKRKALKTTV-amide) (peptide)
peptide: Palmitoyl-KLSHSKGHQKRKALKTTV-NH2
SMILES: CCCCCCCCCCCCCCCC(=O)N[C@@H](CCCCN)C(=O)N[C@@H](CC(C)C)C(=O)N[C@@H](CO)C(=O)N[C@@H](Cc1c[nH]cn1)C(=O)N[C@@H](CO)C(=O)N[C@@H](CCCCN)C(=O)NCC(=O)N[C@@H](Cc1c[nH]cn1)C(=O)N[C@@H](CCC(N)=O)C(=O)N[C@@H](CCCCN)C(=O)N[C@@H](CCCNC(=N)N)C(=O)N[C@@H](CCCCN)C(=O)N[C@@H](C)C(=O)N[C@@H](CC(C)C)C(=O)N[C@@H](CCCCN)C(=O)N[C@H](C(=O)N[C@H](C(=O)N[C@H](C(N)=O)C(C)C)[C@@H](C)O)[C@@H](C)O
Peak Ratio, chemotaxis, CEM, 0.01 uM (CXCR4 receptor [1]): 1
Peak Ratio, chemotaxis, CEM, 0.03 uM (CXCR4 receptor [1]): 1
Peak Ratio, chemotaxis, CEM, 0.1 uM (CXCR4 receptor [1]): 0.2
Peak Ratio, chemotaxis, CEM, 0.3 uM (CXCR4 receptor [1]): 1
Peak Ratio, chemotaxis, CEM, 3.0 uM (CXCR4 receptor [1]): 1

B7: CXCR4 i1 loop compound 41 (peptide)
peptide: Palmitoyl-KKLRSMTDKYRLHLSV-NH2
SMILES: CCCCCCCCCCCCCCCC(=O)N[C@@H](CCCCN)C(=O)N[C@@H](CCCCN)C(=O)N[C@@H](CC(C)C)C(=O)N[C@@H](CCCNC(=N)N)C(=O)N[C@@H](CO)C(=O)N[C@@H](CCSC)C(=O)N[C@H](C(=O)N[C@@H](CC(=O)O)C(=O)N[C@@H](CCCCN)C(=O)N[C@@H](Cc1ccc(O)cc1)C(=O)N[C@@H](CCCNC(=N)N)C(=O)N[C@@H](CC(C)C)C(=O)N[C@@H](Cc1c[nH]cn1)C(=O)N[C@@H](CC(C)C)C(=O)N[C@@H](CO)C(=O)N[C@H](C(N)=O)C(C)C)[C@@H](C)O
AUC (% of), CHTX, CEM, 1.0 uM (CXCR4 receptor [2]): 66.7%
AUC (% of), CHTX, SUP B-15, 1.0 uM (CXCR4 receptor [2]): 51.7%
Max (% of), CHTX, CEM, 1.0 uM (CXCR4 receptor [2]): 76.8%
Max (% of), CHTX, SUP B-15, 1.0 uM (CXCR4 receptor [2]): 41.7%
Peak Ratio, CHTX, CEM, 1.0 uM (CXCR4 receptor [2]): 0.01
Peak Ratio, CHTX, SUP B-15, 1.0 uM (CXCR4 receptor [2]): 0.04

B8: CXCR4 i3 loop compound 93 (peptide)
peptide: Palmitoyl-KLSHSKGHQKRKAL-NH2
SMILES: CCCCCCCCCCCCCCCC(=O)N[C@@H](CCCCN)C(=O)N[C@@H](CC(C)C)C(=O)N[C@@H](CO)C(=O)N[C@@H](Cc1c[nH]cn1)C(=O)N[C@@H](CO)C(=O)N[C@@H](CCCCN)C(=O)NCC(=O)N[C@@H](Cc1c[nH]cn1)C(=O)N[C@@H](CCC(N)=O)C(=O)N[C@@H](CCCCN)C(=O)N[C@@H](CCCNC(=N)N)C(=O)N[C@@H](CCCCN)C(=O)N[C@@H](C)C(=O)N[C@@H](CC(C)C)C(N)=O
AUC (% of vehicle), chemotaxis, CEM, 1.0 uM (CXCR4 receptor [1]): 15.9 % of vehicle
Max (% of vehicle), chemotaxis, CEM, 1.0 uM (CXCR4 receptor [1]): 54.8 % of vehicle
Peak Ratio, chemotaxis, CEM, 1.0 uM (CXCR4 receptor [1]): 0.2

B9: CXCR4 i3 loop compound 92 (peptide)
peptide: Palmitoyl-KLSHSKGHQKRKALK-NH2
SMILES: CCCCCCCCCCCCCCCC(=O)N[C@@H](CCCCN)C(=O)N[C@@H](CC(C)C)C(=O)N[C@@H](CO)C(=O)N[C@@H](Cc1c[nH]cn1)C(=O)N[C@@H](CO)C(=O)N[C@@H](CCCCN)C(=O)NCC(=O)N[C@@H](Cc1c[nH]cn1)C(=O)N[C@@H](CCC(N)=O)C(=O)N[C@@H](CCCCN)C(=O)N[C@@H](CCCNC(=N)N)C(=O)N[C@@H](CCCCN)C(=O)N[C@@H](C)C(=O)N[C@@H](CC(C)C)C(=O)N[C@@H](CCCCN)C(N)=O
Peak Ratio, chemotaxis, CEM, 0.01 uM (CXCR4 receptor [1]): 0.2
Peak Ratio, chemotaxis, CEM, 0.03 uM (CXCR4 receptor [1]): 0.2
Peak Ratio, chemotaxis, CEM, 0.1 uM (CXCR4 receptor [1]): 0.2
Peak Ratio, chemotaxis, CEM, 0.3 uM (CXCR4 receptor [1]): 0.2
Peak Ratio, chemotaxis, CEM, 1.0 uM (CXCR4 receptor [1]): 0.2
Peak Ratio, chemotaxis, CEM, 3.0 uM (CXCR4 receptor [1]): 1

B10: CXCR4 i3 loop compound 94 (peptide)
peptide: Palmitoyl-KLSHSKGHQKRKA-NH2
SMILES: CCCCCCCCCCCCCCCC(=O)N[C@@H](CCCCN)C(=O)N[C@@H](CC(C)C)C(=O)N[C@@H](CO)C(=O)N[C@@H](Cc1c[nH]cn1)C(=O)N[C@@H](CO)C(=O)N[C@@H](CCCCN)C(=O)NCC(=O)N[C@@H](Cc1c[nH]cn1)C(=O)N[C@@H](CCC(N)=O)C(=O)N[C@@H](CCCCN)C(=O)N[C@@H](CCCNC(=N)N)C(=O)N[C@@H](CCCCN)C(=O)N[C@@H](C)C(N)=O
AUC (% of vehicle), chemotaxis, CEM, 1.0 uM (CXCR4 receptor [1]): 65.3 % of vehicle
Max (% of vehicle), chemotaxis, CEM, 1.0 uM (CXCR4 receptor [1]): 80.5 % of vehicle
Peak Ratio, chemotaxis, CEM, 1.0 uM (CXCR4 receptor [1]): 1

B11: CXCR4 i1 loop compound 42 (peptide)
peptide: Palmitoyl-KKLRSMTDKYRLHL-NH2
SMILES: CCCCCCCCCCCCCCCC(=O)N[C@@H](CCCCN)C(=O)N[C@@H](CCCCN)C(=O)N[C@@H](CC(C)C)C(=O)N[C@@H](CCCNC(=N)N)C(=O)N[C@@H](CO)C(=O)N[C@@H](CCSC)C(=O)N[C@H](C(=O)N[C@@H](CC(=O)O)C(=O)N[C@@H](CCCCN)C(=O)N[C@@H](Cc1ccc(O)cc1)C(=O)N[C@@H](CCCNC(=N)N)C(=O)N[C@@H](CC(C)C)C(=O)N[C@@H](Cc1c[nH]cn1)C(=O)N[C@@H](CC(C)C)C(N)=O)[C@@H](C)O
AUC (% of), CHTX, SUP B-15, 1.0 uM (CXCR4 receptor [2]): 43.8%
Max (% of), CHTX, SUP B-15, 1.0 uM (CXCR4 receptor [2]): 33.5%
Peak Ratio, CHTX, CEM, 1.0 uM (row labelled 46, sequence of 42) (CXCR4 receptor [2]): 0.01
Peak Ratio, CHTX, SUP B-15, 1.0 uM (CXCR4 receptor [2]): 0.2
